Experimental data taken from patent US20230220074A1 (Alector, published 2023).

Experiments:
[1] = biological target: T1, murine PILRA (mouse, UniProt Q2YFS3 32-302); assay: flow cytometry, hybridoma conditioned medium on 293 cells expressing the target; MFI relative to 293 parental cells
T1 construct: Ectopically expressed on 293 cells; also called mPILRA; mouse PILRA
Description: (§1) Antibodies against human PILRA were generated as follows. […] PILRA^{-/-} PILRB1^{-/-} PILRB2^{-/-} mice were immunized with human PILRA protein, and hybridomas prepared using standard methods. 300 conditioned media samples containing antibodies were assessed for binding to parental 293 cells or 293 cells ectopically expressing hPILRA, hPILRB, cPILRA, mPILRA, or mPILRB by FACS. […] Six antibodies were identified as human PILRA binders using a cutoff of greater than 5-fold binding. […] No antibody was identified that bound mouse PILRA.

[2] = biological target: T2, human PILRB (human, UniProt Q9UKJ0 20-227); assay: as above
T2 construct: Ectopically expressed on 293 cells; also called hPILRB
T2 sequence (Q9UKJ0 20-227): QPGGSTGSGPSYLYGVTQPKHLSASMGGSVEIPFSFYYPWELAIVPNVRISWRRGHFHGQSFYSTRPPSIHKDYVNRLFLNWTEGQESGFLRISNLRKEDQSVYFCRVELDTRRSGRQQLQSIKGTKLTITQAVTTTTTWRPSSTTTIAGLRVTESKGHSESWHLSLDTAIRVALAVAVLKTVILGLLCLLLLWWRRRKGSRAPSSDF
Description: as §1

[3] = biological target: T3, murine PILRB (mPILRB1) (mouse, UniProt Q2YFS2 29-224); assay: as above
T3 construct: whole, on cells; Ectopically expressed on 293 cells; also called mouse PILRB
T3 sequence (Q2YFS2 29-224): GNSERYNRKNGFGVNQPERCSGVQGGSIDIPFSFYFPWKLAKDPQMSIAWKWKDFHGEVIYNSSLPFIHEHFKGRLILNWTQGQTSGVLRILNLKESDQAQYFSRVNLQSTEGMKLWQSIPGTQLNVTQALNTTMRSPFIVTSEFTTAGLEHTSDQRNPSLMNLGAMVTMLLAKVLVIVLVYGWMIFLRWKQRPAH
Description: as §1

[4] = biological target: T4, human PILRA (human, UniProt Q9UKJ1 20-303); assay: as above
T4 construct: also called hPILRA
T4 sequence (Q9UKJ1 20-303): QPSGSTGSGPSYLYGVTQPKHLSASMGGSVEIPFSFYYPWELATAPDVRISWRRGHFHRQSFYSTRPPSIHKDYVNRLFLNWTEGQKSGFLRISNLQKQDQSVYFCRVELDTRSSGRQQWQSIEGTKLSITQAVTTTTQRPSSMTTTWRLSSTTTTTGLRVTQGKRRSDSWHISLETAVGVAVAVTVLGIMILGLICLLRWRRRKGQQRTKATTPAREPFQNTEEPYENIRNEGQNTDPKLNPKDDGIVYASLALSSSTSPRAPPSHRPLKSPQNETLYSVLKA
Description: as §1

[5] = biological target: T5, cynomolgus monkey PILRA (cynomolgus monkey); assay: as above
T5 construct: Ectopically expressed on 293 cells; also called cPILRA
T5 sequence (chain, as listed by the source): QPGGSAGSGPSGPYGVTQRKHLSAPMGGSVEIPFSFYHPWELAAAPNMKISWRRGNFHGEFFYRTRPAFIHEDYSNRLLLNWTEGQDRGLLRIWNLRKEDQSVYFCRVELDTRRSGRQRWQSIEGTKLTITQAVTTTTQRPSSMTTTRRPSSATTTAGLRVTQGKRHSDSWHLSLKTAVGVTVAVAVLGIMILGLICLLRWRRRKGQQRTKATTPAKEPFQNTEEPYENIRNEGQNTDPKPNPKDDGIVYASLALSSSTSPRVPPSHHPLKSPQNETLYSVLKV
Description: as §1

[6] = biological target: T1, murine PILRA; assay: flow cytometry, conditioned medium on 293 cells expressing the target
Description: as §1

[7] = biological target: T6, soluble human PILRA hIgG1 Fc construct (human); assay: flow cytometry; blocking of PILRA Fc binding to human CD3+ T cells, 3 donors, average ± SEM
T6 construct: also called PILRA Fc; PILRA-Fc
T6 sequence (chain, as listed by the source limits assumed): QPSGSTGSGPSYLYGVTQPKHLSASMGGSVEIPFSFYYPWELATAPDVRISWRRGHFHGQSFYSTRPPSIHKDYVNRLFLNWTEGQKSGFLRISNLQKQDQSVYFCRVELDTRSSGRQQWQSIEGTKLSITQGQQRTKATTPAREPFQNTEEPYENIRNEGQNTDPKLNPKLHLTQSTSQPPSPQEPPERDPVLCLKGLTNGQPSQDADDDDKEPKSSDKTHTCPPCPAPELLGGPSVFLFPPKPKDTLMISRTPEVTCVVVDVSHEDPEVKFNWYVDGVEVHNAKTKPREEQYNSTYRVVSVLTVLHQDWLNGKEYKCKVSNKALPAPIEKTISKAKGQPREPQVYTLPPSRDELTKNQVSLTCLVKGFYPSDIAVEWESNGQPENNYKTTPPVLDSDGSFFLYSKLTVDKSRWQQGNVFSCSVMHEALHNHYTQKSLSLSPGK
Description: Purified anti-hPILRA antibodies were evaluated for their ability to block binding of PILRA Fc to human CD3+ T cells from 3 separate donors in order to calculate the ligand blocking potency of these antibodies.

T1 sequence (Q2YFS3 32-302): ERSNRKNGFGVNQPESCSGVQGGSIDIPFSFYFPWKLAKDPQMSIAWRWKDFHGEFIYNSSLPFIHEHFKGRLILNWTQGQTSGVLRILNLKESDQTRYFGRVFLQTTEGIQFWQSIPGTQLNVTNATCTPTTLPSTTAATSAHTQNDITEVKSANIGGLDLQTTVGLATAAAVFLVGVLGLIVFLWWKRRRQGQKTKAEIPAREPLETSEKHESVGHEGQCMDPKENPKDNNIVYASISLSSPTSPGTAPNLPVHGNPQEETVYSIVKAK

B1: hPA-001 (antibody, V domains shown)
VH: QVTLKESGPGILQPSQTLSLTCSFSGFSLTTFGMGVGWIRQPSGKGLEWLAHIWWDDDKYYNPALKSRLTISKDISKNQVFLKIANVDTADTATYYCARIEDYGNPFDYWGQGTTLTVSS
VL: DIQMNQSPSSLSASLGDTITITCHASQNIHVWLSWYQQKPGNIPKLLIYKASNLHTGVPSRFSGSGSGTGFTLTISSLQPEDIATYYCQQGQSYPLTFGAGTKLELK
notes: Mouse hybridoma antibody, tested as conditioned medium
- MFI relative to 293 parental cells [1]: 0.5 fold over 293 parental cells
- MFI relative to 293 parental cells [2]: 1.3 fold over 293 parental cells
- MFI relative to 293 parental cells [3]: 0.5 fold over 293 parental cells
- MFI relative to 293 parental cells [4]: 131 fold over 293 parental cells
- MFI relative to 293 parental cells [5]: 0.5 fold over 293 parental cells
- binding result [6]: no binding (tested: cutoff of greater than 5-fold binding)

B2: hPA-005 (antibody, V domains shown)
VH: QVILKESGPGILQSSQTLSLTCSFSGFSLSTFGMGVGWIRQPSGKGLESLAHIWWDDDKFYNPALKSRLTISKDTSKSQVFLKIANVDTADIATYYCTRIEDYGSYFAYWGQGTTLTVSS
VL: DVQMNQSPSSLSASLGDPITITCHASQNIHVWLNWYQQRPGNIPRLLIYKASNLHTGVPSRFSGSGSGTGFTLTISSLQPEDIATYYCQQGQSYPYTFGGGTKLEIK
notes: Mouse hybridoma antibody, tested as conditioned medium or purified
- MFI relative to 293 parental cells [1]: 0.4 fold over 293 parental cells
- MFI relative to 293 parental cells [2]: 1.3 fold over 293 parental cells
- MFI relative to 293 parental cells [3]: 0.5 fold over 293 parental cells
- MFI relative to 293 parental cells [4]: 104 fold over 293 parental cells
- MFI relative to 293 parental cells [5]: 0.5 fold over 293 parental cells
- binding result [6]: no binding (tested: cutoff of greater than 5-fold binding)
- IC50 [7]: 1.9 nM

B3: hPA-004 (antibody, V domains shown)
VH: QVTLKESGPGMLQPSQTLSLACSFSGFSLNSFGVAVGWIRQPSGKGLEWLAHIWWDDDKSYNPALKSRLTISKDTSKNQVFLKLANVDTADTATYYCTRIADYGNHFDYWGQGTALTVSS
VL: DIQMNQSPSSLSASLGDTITITCHASQNSHVWLSWYQQKPGNIPKLLIYKASNLHTGVPSRFSGSGSGTGFTLTISGLQPEDIATYYCQQGQTYPFTFGSGTKLEIK
notes: as for B2
- MFI relative to 293 parental cells [1]: 0.6 fold over 293 parental cells
- MFI relative to 293 parental cells [3]: 0.6 fold over 293 parental cells
- MFI relative to 293 parental cells [4]: 83.9 fold over 293 parental cells
- binding result [6]: no binding (tested: cutoff of greater than 5-fold binding)
- IC50 [7]: 1.7 nM

B4: hPA-002 (antibody, V domains shown)
VH: QVTLQESGPGILQPSQTLSLTCSFSGFSLSTFGMGVGWIRQPSGKGLEWLAHIWWDDDKYYNPALKSRLTISKDTSKNQVFLKIASVDTADIATYYCARVEDYGNPFDYWGQGTTLTVSS
VL: DIQMNQSPSSLSASLGDTITITCHASQNIHVWLNWYQQKPGNIPKLLIYKASNLHTGVPSRFSGSGSGTGFTVTISSLQPEDIATYYCQQGQSYPLTFGAGTKLELK
notes: Mouse hybridoma antibody, tested as conditioned medium or purified; also called hPA-002 A647
- MFI relative to 293 parental cells [1]: 0.3 fold over 293 parental cells
- MFI relative to 293 parental cells [2]: 1.2 fold over 293 parental cells
- MFI relative to 293 parental cells [3]: 0.3 fold over 293 parental cells
- MFI relative to 293 parental cells [4]: 133 fold over 293 parental cells
- MFI relative to 293 parental cells [5]: 0.3 fold over 293 parental cells
- binding result [6]: no binding (tested: cutoff of greater than 5-fold binding)
- IC50 [7]: 0.75 nM
